{"source": "the supplement of paper PMC10567573", "parents": {"B1": {"name": "HSP90AB1 (parent)", "chain": "TLRQKAEADKNDKAVKDLVVLLFE"}}}
{"variants_of": "B1", "assay": "protein stability index of a GFP-peptide fusion (GPS, HEK-293T) (PSI 1-6); higher = more stable", "settings": "c terminus: a fixed tail appended"}
{"variant": "TLRQMAEADKNDKAVKDLVVLLFE", "protein stability index": 3.48}
{"variant": "TLRQHAEADKNDKAVKDLVVLLFE", "protein stability index": 3.01}
{"variant": "TLRQEAEADKNDKAVKDLVVLLFE", "protein stability index": 3.38}
{"variant": "TLRQAAEADKNDKAVKDLVVLLFE", "protein stability index": 3.12}
{"variant": "TLRQLAEADKNDKAVKDLVVLLFE", "protein stability index": 3.1}
{"variant": "TLRQQAEADKNDKAVKDLVVLLFE", "protein stability index": 4.01}
{"variant": "TLRQFAEADKNDKAVKDLVVLLFE", "protein stability index": 2.75}
{"variant": "TLRQVAEADKNDKAVKDLVVLLFE", "protein stability index": 3.24}
{"variant": "TLRQTAEADKNDKAVKDLVVLLFE", "protein stability index": 3.15}
{"variant": "TLRQYAEADKNDKAVKDLVVLLFE", "protein stability index": 3.26}
{"variant": "TLRQIAEADKNDKAVKDLVVLLFE", "protein stability index": 3.03}
{"variant": "TLRQGAEADKNDKAVKDLVVLLFE", "protein stability index": 3.87}
{"variant": "TLRQDAEADKNDKAVKDLVVLLFE", "protein stability index": 3.88}
{"variant": "TLRQRAEADKNDKAVKDLVVLLFE", "protein stability index": 3}
{"variant": "TLRQCAEADKNDKAVKDLVVLLFE", "protein stability index": 2.85}
{"variant": "TLRQSAEADKNDKAVKDLVVLLFE", "protein stability index": 3.36}
{"variant": "TLRQKAEADPNDKAVKDLVVLLFE", "protein stability index": 3.68}
{"variant": "TLRQKAEADGNDKAVKDLVVLLFE", "protein stability index": 2.63}
{"variant": "TLRQKAEADENDKAVKDLVVLLFE", "protein stability index": 2.73}
{"variant": "TLRQKAEADTNDKAVKDLVVLLFE", "protein stability index": 2.92}
{"variant": "TLRQKAEADLNDKAVKDLVVLLFE", "protein stability index": 2.61}
{"variant": "TLRQKAEADFNDKAVKDLVVLLFE", "protein stability index": 2.53}
{"variant": "TLRQKAEADHNDKAVKDLVVLLFE", "protein stability index": 2.69}
{"variant": "TLRQKAEADRNDKAVKDLVVLLFE", "protein stability index": 3.29}
{"variant": "TLRQKAEADDNDKAVKDLVVLLFE", "protein stability index": 3.11}
{"variant": "TLRQKAEADINDKAVKDLVVLLFE", "protein stability index": 3.06}
{"variant": "TLRQKAEADANDKAVKDLVVLLFE", "protein stability index": 3.44}
{"variant": "TLRQKAEADWNDKAVKDLVVLLFE", "protein stability index": 2.52}
{"variant": "TLRQKAEADMNDKAVKDLVVLLFE", "protein stability index": 2.65}
{"variant": "TLRQKAEADVNDKAVKDLVVLLFE", "protein stability index": 2.57}
{"variant": "TLRQKAEADSNDKAVKDLVVLLFE", "protein stability index": 3.56}
{"variant": "TLRQKAEADNNDKAVKDLVVLLFE", "protein stability index": 2.98}
{"variant": "TLRQKAEADQNDKAVKDLVVLLFE", "protein stability index": 2.98}
{"variant": "TLRQKAEADKNDAAVKDLVVLLFE", "protein stability index": 3.19}
{"variant": "TLRQKAEADKNDPAVKDLVVLLFE", "protein stability index": 3.22}
{"variant": "TLRQKAEADKNDFAVKDLVVLLFE", "protein stability index": 1.93}
{"variant": "TLRQKAEADKNDSAVKDLVVLLFE", "protein stability index": 2.99}
{"variant": "TLRQKAEADKNDDAVKDLVVLLFE", "protein stability index": 2.63}
{"variant": "TLRQKAEADKNDCAVKDLVVLLFE", "protein stability index": 2.84}
{"variant": "TLRQKAEADKNDIAVKDLVVLLFE", "protein stability index": 2.47}
{"variant": "TLRQKAEADKNDNAVKDLVVLLFE", "protein stability index": 2.85}
{"variant": "TLRQKAEADKNDMAVKDLVVLLFE", "protein stability index": 2.75}
{"variant": "TLRQKAEADKNDHAVKDLVVLLFE", "protein stability index": 2.46}
{"variant": "TLRQKAEADKNDQAVKDLVVLLFE", "protein stability index": 3.21}
{"variant": "TLRQKAEADKNDGAVKDLVVLLFE", "protein stability index": 2.77}
{"variant": "TLRQKAEADKNDEAVKDLVVLLFE", "protein stability index": 3.39}
{"variant": "TLRQKAEADKNDTAVKDLVVLLFE", "protein stability index": 2.96}
{"variant": "TLRQKAEADKNDVAVKDLVVLLFE", "protein stability index": 2.91}
{"variant": "TLRQKGEADKNDKAVKDLVVLLFE", "protein stability index": 2.72}
{"variant": "TLRQKNEADKNDKAVKDLVVLLFE", "protein stability index": 2.61}
{"variant": "TLRQKREADKNDKAVKDLVVLLFE", "protein stability index": 2.69}
{"variant": "TLRQKQEADKNDKAVKDLVVLLFE", "protein stability index": 2.68}
{"variant": "TLRQKEEADKNDKAVKDLVVLLFE", "protein stability index": 3.33}
{"variant": "TLRQKWEADKNDKAVKDLVVLLFE", "protein stability index": 3.32}
{"variant": "TLRQKMEADKNDKAVKDLVVLLFE", "protein stability index": 2.93}
{"variant": "TLRQKIEADKNDKAVKDLVVLLFE", "protein stability index": 3.35}
{"variant": "TLRQKCEADKNDKAVKDLVVLLFE", "protein stability index": 2.91}
{"variant": "TLRQKPEADKNDKAVKDLVVLLFE", "protein stability index": 3.29}
{"variant": "TLRQKDEADKNDKAVKDLVVLLFE", "protein stability index": 3.41}
{"variant": "TLRQKFEADKNDKAVKDLVVLLFE", "protein stability index": 2.74}
{"variant": "TLRQKKEADKNDKAVKDLVVLLFE", "protein stability index": 2.71}
{"variant": "TLRQKTEADKNDKAVKDLVVLLFE", "protein stability index": 2.85}
{"variant": "TGRQKAEADKNDKAVKDLVVLLFE", "protein stability index": 3.13}
{"variant": "TCRQKAEADKNDKAVKDLVVLLFE", "protein stability index": 3.12}
{"variant": "TMRQKAEADKNDKAVKDLVVLLFE", "protein stability index": 2.95}
{"variant": "TDRQKAEADKNDKAVKDLVVLLFE", "protein stability index": 3.13}
{"variant": "TSRQKAEADKNDKAVKDLVVLLFE", "protein stability index": 3.05}
{"variant": "TKRQKAEADKNDKAVKDLVVLLFE", "protein stability index": 2.26}
{"variant": "TIRQKAEADKNDKAVKDLVVLLFE", "protein stability index": 3.16}
{"variant": "TFRQKAEADKNDKAVKDLVVLLFE", "protein stability index": 2.65}
{"variant": "TQRQKAEADKNDKAVKDLVVLLFE", "protein stability index": 3.62}
{"variant": "TWRQKAEADKNDKAVKDLVVLLFE", "protein stability index": 2.43}
{"variant": "TRRQKAEADKNDKAVKDLVVLLFE", "protein stability index": 2.56}
{"variant": "TYRQKAEADKNDKAVKDLVVLLFE", "protein stability index": 2.64}
{"variant": "TVRQKAEADKNDKAVKDLVVLLFE", "protein stability index": 3.15}
{"variant": "TERQKAEADKNDKAVKDLVVLLFE", "protein stability index": 3.01}
{"variant": "TNRQKAEADKNDKAVKDLVVLLFE", "protein stability index": 2.79}
{"variant": "TPRQKAEADKNDKAVKDLVVLLFE", "protein stability index": 3.23}
{"variant": "TLRQKAEAPKNDKAVKDLVVLLFE", "protein stability index": 2.48}
{"variant": "TLRQKAEACKNDKAVKDLVVLLFE", "protein stability index": 2.73}
{"variant": "TLRQKAEAEKNDKAVKDLVVLLFE", "protein stability index": 2.74}
{"variant": "TLRQKAEAFKNDKAVKDLVVLLFE", "protein stability index": 2.52}
{"variant": "TLRQKAEASKNDKAVKDLVVLLFE", "protein stability index": 2.92}
{"variant": "TLRQKAEATKNDKAVKDLVVLLFE", "protein stability index": 2.35}
{"variant": "TLRQKAEAIKNDKAVKDLVVLLFE", "protein stability index": 2.26}
{"variant": "TLRQKAEAKKNDKAVKDLVVLLFE", "protein stability index": 2.51}
{"variant": "TLRQKAEAAKNDKAVKDLVVLLFE", "protein stability index": 2.98}
{"variant": "TLRQKAEAHKNDKAVKDLVVLLFE", "protein stability index": 2.95}
{"variant": "TLRQKAEANKNDKAVKDLVVLLFE", "protein stability index": 2.51}
{"variant": "TLRQKAEAVKNDKAVKDLVVLLFE", "protein stability index": 2.38}
{"variant": "TLRQKAEAYKNDKAVKDLVVLLFE", "protein stability index": 2.87}
{"variant": "TLRQKAEAGKNDKAVKDLVVLLFE", "protein stability index": 3.17}
{"variant": "TLRQKAEAQKNDKAVKDLVVLLFE", "protein stability index": 3.23}
{"variant": "TLRWKAEADKNDKAVKDLVVLLFE", "protein stability index": 2.71}
